Biological target: PKM2 (M2 isoform of pyruvate kinase), endogenous (human (endogenous in A549 and in patients' lung cancer tissues)) (UniProt P14618)
Experiment: native gel or EMSA; native PAGE of cytoplasm and nucleus of cells; TRIB2 overexpression or siRNA-TRIB2

Sequence of PKM2 (M2 isoform of pyruvate kinase), endogenous, P14618 1-531 (natural protein; other documents disagree on this pair) (P14618 whole entry, canonical isoform): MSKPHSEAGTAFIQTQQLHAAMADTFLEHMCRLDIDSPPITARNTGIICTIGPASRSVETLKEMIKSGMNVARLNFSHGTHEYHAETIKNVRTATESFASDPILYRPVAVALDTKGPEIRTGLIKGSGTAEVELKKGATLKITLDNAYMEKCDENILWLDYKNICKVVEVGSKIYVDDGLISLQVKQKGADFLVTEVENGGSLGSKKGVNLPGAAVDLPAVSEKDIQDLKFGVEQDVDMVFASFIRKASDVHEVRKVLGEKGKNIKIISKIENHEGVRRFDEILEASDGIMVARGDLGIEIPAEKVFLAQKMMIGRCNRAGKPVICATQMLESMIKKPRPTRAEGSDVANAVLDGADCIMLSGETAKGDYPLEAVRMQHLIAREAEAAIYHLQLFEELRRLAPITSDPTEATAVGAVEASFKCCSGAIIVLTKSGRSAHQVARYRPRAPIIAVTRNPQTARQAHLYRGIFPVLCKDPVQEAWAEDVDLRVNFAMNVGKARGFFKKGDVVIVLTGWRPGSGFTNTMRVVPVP

stoichiometry N: 2
Substance: PKM2 (M2 isoform of pyruvate kinase), endogenous, P14618 1-531 (natural protein; other documents disagree on this pair)
